Changes are numbered by the printed parent chain.
B1: Sb#32 (VHH)
VHH: QVQLDESGGGLVQAGGSLRLSCAASGFPVYHAWMEWYRQAPGKEREWVAAITSSGRHTYYADSVKGRFTISRDNAKNTVYLQMNSLKPEDTAVYYCNVKDAGRVYNSYDYWGQGTQVTVS
B2: Sb#25 (VHH)
VHH: QVQLVESGGGLVQAGGSLRLSCAASGFPVHAWEMAWYRQAPGKEREWVAAIRSFGSSTHYADSVKGRFTISRDNAKNTVYLQMNSLKPEDTAVYYCNVKDFGTHHYAYDYWGQGTQVTVS
B3: Sb#36 (VHH)
VHH: B2 VHH with V29E, H30I, S56E, S57R, H59L, T103W, H104Q, Y106Q, A107E
B4: Sb#26 (VHH)
VHH: QVQLVESGGGLVQAGGSLRLSCAASGFPVNTWWMHWYRQAPGKEREWVAAITSWGFRTYYADSVKGRFTISRDNAKNTVYLQMNSLKPEDTAVYYCNVKDKGMAVQWYDYWGQGTQVTVS
B5: Sb#29 (VHH)
VHH: QVQLVESGGGLVQAGGSLRLSCAASGFPVEHEMAWYRQAPGKEREWVAAIRSMGRKTLYADSVKGRFTISRDNAKNTVYLQMNSLKPEDTAVYYCNVKDFGYTWHEYDYWGQGTQVTVS
B6: Sb#6 (VHH)
VHH: QVQLVESGGGLVQAGGSLRLSCAASGFPVEQGRMYWYRQAPGKEREWVAAIISHGTVTVYADSVKGRFTISRDNAKNTVYLQMNSLKPEDTAVYYCYVYVGAQYWGQGTQVTVS
B7: Sb#12 (VHH)
VHH: B6 VHH with E30K, Q31A, G32S, I52Q, H54F, T56E, V59W, Y99W, A102Q, Q103E
B8: Sb#31 (VHH)
VHH: QVQLVESGGGLVQAGGSLRLSCAASGFPVNSHFMEWYRQAPGKEREWVAAIQHSSGFHTYYADSVKGRFTISRDNAKNTVYLQMNSLKPEDTAVYYCNVKDTGTTEDYDYWGQGTQVTVS
B9: Sb#30 (VHH)
VHH: QVQLVESGGGLVQAGGSLRLSCAASGFPVTMAWMWWYRQAPGKEREWVAAIRSEGVRTYYADSVKGRFTISRDNAKNTVYLQMNSLKPEDTAVYYCNVKDYGQAHAYYDYWGQGTQVTVS
B10: Sb#49 (VHH)
VHH: QVQLVESGGGSVQAGGSLRLSCAASGSIGQIEYLGWFRQAPGKEREGVAALNTWTGRTYYADSVKGRFTVSLDNAKNTVYLQMNSLKPEDTALYYCAAARWGRTKPLNTYYYSYWGQGTPVTVS
B11: Sb#11 (VHH)
VHH: QVQLVESGGGLVQAGGSLRLSCAASGFPVETENMHWYRQAPGKEREWVAAIYSHGMWTAYADSVKGRFTISRDNTKNTVYLQMNSLKPEDTAVYYCEVEVGKWYFGQGTQVTVS
B12: Sb#10 (VHH)
VHH: QVQLVESGGGLVQAGGSLRLSCAASGFPVQSHYMRWYRQAPGKEREWVAAIESTGHHTAYADSVKGRFTISRDNAKNTVYLQMNSLKPEDTAVYYCTVYVGYEYHGQGTQVTVS
B13: Sb#40 (VHH)
VHH: QVQLVESGGGLVQAGGSLRLSCAASGFPVYYNWMEWYRQAPGKEREWVAAIHSNGDETFYADSVKGRFTISRDNAKNTVYLQMNSLKPEDTAVYYCNVKDIDAEAYAYDYWGQGTQVTVS
B14: Sb#20 (VHH)
VHH: QVQLVESGGGLVQAGGSLRLSCAASGFPVEQREMEWYRQAPGKEREWVAAIDSNGNYTFYADSVKGRFTISRDNAKNTVYLQMNSLKPEDTAVYYCYVYVGKSYIGQGTQVTVS
B15: Sb#23 (VHH)
VHH: B14 VHH with E30Y, Q31A, R32A, D52S, N54Q, N56T, Y57I, F59Y, Y97F, T112S
B16: Sb#46 (VHH)
VHH: QVQLVESGGGLVQAGGSLRLSCAASGFPVDNGYMHWYRQAPGKEREWVAAIDSYGWHTIYADSVKGRFTISRDNAKNTVYLQMNSLKPEDTAVYYCNVKDKGQMRAAYDYWGQGTQVTVS
B17: Sb#2 (VHH)
VHH: QVQLVESGGGLVQAGGSLRLSCATSGFPVYQANMHWYRQAPGKEREWVAAIQSYGDGTHYADSVKGRFTISRDNAKNTVYLQMNSLKPEDTAVYYCRAVYVGMHYFGQGTQVTVS
B18: Sb#5 (VHH)
VHH: QVQLVESGGGLVQAGGSLRLSCAASGFPVFSGHMHWYRQAPGKEREWVAAILSNGDSTHYADSVKGRFTISRDNAKNTVYLQMNSLKPEDTAVYYCRVHVGAHYFGQGTQVTVS
B19: Sb#3 (VHH)
VHH: QVQLVESGGGLVQAGGSLRLSCAASGFPVNYKTMWWYRQAPGKEREWVAAIWSYGHTTHYADSVKGRFTISRDNAKNTVYLQMNSLKPEDTAVYYCVVWVGHNYEGQGTQVTVS
B20: Sb#27 (VHH)
VHH: QVQLVESGGGLVQAGGSLRLSCAASGFPVYNTWMEWYRQAPGKEREWVAAITSHGYKTYYADSVKGRFTISRDNAKNTVYLQMNSLKPEDTAVYYCNVKDEGDMFTAYDYWGQGTQVTVS
B21: Sb#33 (VHH)
VHH: B20 VHH with Y30A, N31H, T32A, H54Y, E101T, D103T, M104Y, F105R, T106F, A107Y
B22: Sb#13 (VHH)
VHH: QVQLVESGGGLVQAGGSLRLSCAASGFPVYASNMHWYRQAPGKEREWVAAIESQGYMTAYADSVKGRFTISRDNAKNTVYLQMNSLKPEDTAVYYCWVIVGEYYVGQGTQVTVS
B23: Sb#39 (VHH)
VHH: QVQLVESGGGLVQAGGSLRLSCAASGFPVFHVWMEWYRQAPGKEREWVAAIDSAGWHTYYADSVKGRFTISRDNAKNTVYLQMNSLKPEDTAVYYCNVKDAGNTTSAYDYWGQGTQVTVS
B24: Sb#38 (VHH)
VHH: QVQLVESGGGLVQAGGSLRLSCAASGFPVEWSHMHWYRQAPGKEREWVAAIVSKGGYTLYADSVKGRFTISRDNAKNTVYLQMNSLKPEDTAVYYCNVKDYGVHFKRYDYWGQGTQVTVI
B25: Sb#48 (VHH)
VHH: QVQLVESGGGLVQAGGSLRLSCAASGFPVSQSVMAWYRQAPGKEREWVAAIYSKGQYTHYADSVKGRFTISRDNAKNTVYLQMNSLKPEDTAVYYCNVKDAGSSYWDYDYWGQGTQVTVS
B26: Sb#9 (VHH)
VHH: QVQLVESGGGLVQAGGSLRLSCAASGFPVSSSTMTWYRQAPGKEREWVAAINSYGWETHYADSVKGRFTISRDNAKNTVYLQMNSLKPEDTAVYYCYVYVGGSYIGQGTQVTVS
B27: Sb#19 (VHH)
VHH: B26 VHH with S30N, S32H, T33E, N52Q, Y54T, W56T, E57V, H59E, G102S, I105L
B28: Sb#35 (VHH)
VHH: QVQLVESGGGLVQAGGSLRLSCAASGFPVEHYWMEWYRQAPGKEREWVAAITSFGYRTYYADSVKGRFTISRDNAKNTVYLQMNSLKPEDTAVYYCNVKDWGFASHAYDYWGQGIQVTVS
B29: Sb#1 (VHH)
VHH: QVQLVESGGGLVQAGGSLRLSCAASGFPVRKANMHWYRQAPGKEREWVAAIMSKGEQTVYADSVEGRFTISRDNAKNTVYLQMNSLKPEDTAVYYCRVFVGWHYFGQGTQVTVS
B30: Sb#8 (VHH)
VHH: B18 VHH with F30N, S31A, H33N, L52Q, N54Y, D56R, S57T, H59Y, H99F, A102M
B31: Sb#28 (VHH)
VHH: QVQLVESGGGLVQAGGSLRLSCAASGFPVYHSTMFWYRQAPGKEREWVAAIYSSGQHTYYADSVKGRFTISRDNAKNTVYLQMNSLKPEDTAVYYCNVKDSGQWRQEYDYWGQGTQVTVS
B32: Sb#37 (VHH)
VHH: B31 VHH with S32A, T33Y, F35E, S54N, Q56E, Q103S, W104F, R105N, E107A
B33: Sb#21 (VHH)
VHH: QVQLVESGGGLVQAGGSLRLSCAASGFPVKHHWMFWYRQAPGKEREWVAAIKSYGYGTEYADSVKGRFTISRDNAKNTVYLQMNSLKPEDTAVYYCFVGVGTHYAGQGTQVTVS
B34: Sb#17 (VHH)
VHH: QVQLVESGGGLVQAGGSLRLSCAASGFPVAGRNMWWYRQAPGKEREWVAAIYSSGTYTEYADSVKGRFTISRDNAKNTVYLQMNSLKPEDTAVYYCHVWVGSLYKGQGTQVTVS

Each binder was assayed against SARS-CoV-2 RBD construct consisting of residues Pro330-Gly526 fused to Venus YFP (RBD-vYFP) (SARS-CoV-2, UniProt P0DTC2).

Binder | binding result
B1 | binds
B2 | binds
B3 | binds
B4 | binds
B5 | binds
B6 | binds
B7 | binds
B8 | binds
B9 | binds
B10 | binds
B11 | binds
B12 | binds
B13 | binds
B14 | binds
B15 | binds
B16 | binds
B17 | binds

Binder | binding result
B18 | binds
B19 | binds
B20 | binds
B21 | binds
B22 | binds
B23 | binds
B24 | binds
B25 | binds
B26 | binds
B27 | binds
B28 | binds
B29 | binds
B30 | binds
B31 | binds
B32 | binds
B33 | binds
B34 | binds

Source: paper doi:10.1101/2020.04.16.045419 (bioRxiv, 2020)
